{
  "source": "patent US20210340238A1",
  "about": "“TGFß1 INHIBITORS AND USE THEREOF” (Scholar Rock, Inc., priority 2018, published 2021)",
  "molecules": {"B1": {"name": "Ab2: isoform-selective inhibitor of TGFβ1 activation; VH SEQ ID NO: 13, VL SEQ ID NO: 15; human IgG4 (antibody, V domains shown)", "VH": "EVQLLESGGGLVQPGGSLRLSCAASGFTFADYAMTWVRQAPGKGLEWVSAISGSGAATYFADSVKGRFTISRDNSKNTLYLQMNSLRAEDTAVYYCARVSSGHWDFDYWGQGTLVTVSS", "VL": "DIQLTQSPSSLSASVGDRVTITCRASQSISSYLNWYQQKPGKAPKLLIYAASNLQSGVPSRFSGSGSGTDFTLTISSLQPEDFATYYCQQTYTVPLTFGGGTKVEIK", "modifications": "human IgG4 constant regions"}},
  "molecular_target": "T1, human proTGFβ1 C4S/R249A (Homo sapiens, UniProt P01137, C33S/R278A)",
  "T1 construct": "made in house; host or cells: expi293 (kifunensine-treated), co-expressed with Ab2-Fab",
  "T1 sequence (P01137 30-390 C33S/R278A)": "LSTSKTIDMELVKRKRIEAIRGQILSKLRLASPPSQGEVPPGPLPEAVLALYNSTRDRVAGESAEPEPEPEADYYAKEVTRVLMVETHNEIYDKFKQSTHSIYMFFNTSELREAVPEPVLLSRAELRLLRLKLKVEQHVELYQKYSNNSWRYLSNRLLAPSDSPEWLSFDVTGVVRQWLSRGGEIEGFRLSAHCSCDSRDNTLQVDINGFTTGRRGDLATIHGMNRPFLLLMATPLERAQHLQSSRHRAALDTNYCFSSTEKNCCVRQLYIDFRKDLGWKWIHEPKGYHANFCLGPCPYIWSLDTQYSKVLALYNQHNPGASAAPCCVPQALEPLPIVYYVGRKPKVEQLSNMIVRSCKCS",
  "experiment": "X-ray crystallography of proTGFβ1:Ab2-Fab:AbX-Fab ternary complex",
  "format": "binding",
  "conditions": "numbering after removal of signal sequence",
  "source_text": "In this work, an uncleavable human proTGFβ1 C4S/R249A variant was used that spans residues 30-390 based on the full-length sequence of human proTGFβ1 (Uniprot ID P01137). The numbering system that will be used for the rest of this document will designate position 1 as the first amino acid residue after the removal of the signal sequence for proTGFβ isoforms. The C4S mutation renders proTGFβ1 not capable of covalent crosslinking to any known presenting molecules, e.g. LTBPs and GARP, while the R249A renders proTGFβ1 resistant to proprotein convertase/furin protease cleavage, thus maintaining proTGFβ1 in its uncleaved, proprotein form. ProTGFβ1 C4S/R249A was co-expressed with C-terminally 6×-His tagged Ab2-Fab in kifunensine-treated expi293 mammalian expression system to reduce N-linked glycosylation events. The proTGFβ1 C4S/R249A:Ab2-Fab was affinity purified, treated with endoglycosidase H and purified by gel filtration. The proTGFβ1 C4S/R249A:Ab2-Fab complex was then incubated with AbX-Fab to generate the ternary complex. The AbX Fab in this context was used as an auxiliary protein, which acts as a crystallization chaperone to increase the probability of obtaining protein crystals.\nCrystallization experiments were performed at room temperature in a sitting drop format. […]",
  "data": [
    {"molecule": "B1", "values": [
      {"measurement": "Epitope on proTGFβ1 from crystal structure", "result": "linear epitope formed by residues 35-43"}
    ]}
  ]
}
